Consider 1 molecule from US20220168438A1 (Daiichi Sankyo, published 2022).

The target in one experiment is T1, human CLDN3 (human, UniProt O15551 1-220).
T1 construct: whole, on cells
T1 sequence (looked up): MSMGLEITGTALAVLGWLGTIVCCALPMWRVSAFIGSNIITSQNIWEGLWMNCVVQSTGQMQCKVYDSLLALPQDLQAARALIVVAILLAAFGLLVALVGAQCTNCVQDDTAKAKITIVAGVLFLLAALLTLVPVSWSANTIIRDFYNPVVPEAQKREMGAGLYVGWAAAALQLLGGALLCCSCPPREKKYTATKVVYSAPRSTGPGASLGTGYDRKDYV
The experiment can be described thus: flow cytometry on transiently transfected 293T cells. The protocol:
(§1) Binding activity of the mouse anti-CLDN6 antibodies produced in Example 6 to human CLDN6 and its family molecules, CLDN3, CLDN4, and CLDN9, was evaluated by using a flow cytometry method. Human CLDN3/pCMV6-Entry, human CLDN4/pCMV6-Entry, human CLDN6/pCMV-Entry, human CLDN9/pCMV6-Entry, or pCMV6-Entry purchased from OriGene Technologies, Inc. was transiently transferred into 293T cells (Thermo Fisher Scientific, HCL4517) by using Lipofectamine 2000 (Thermo Fisher Scientific), and the cells were cultured under conditions of 37° C. and 5% CO₂ overnight, and then a cell suspension was prepared. The transfected 293T cell suspension was centrifuged to remove the supernatant, and a mouse anti-CLDN6 antibody (clone number: B1 or C7) or a mouse IgG1 control antibody (R&D Systems, Inc.) was then added and suspended to a final concentration of 30 μg/mL, 10 μg/mL, 3.3 μg/mL, or 1.1 μg/mL, and the resultant was left to stand at 4° C. for 1 hour. The cells were washed twice with Dulbecco's phosphate buffered saline (Sigma-Aldrich Co. LLC) containing 5% fetal bovine serum (Hyclone) (hereinafter, referred to as 5% FBS-containing PBS), and FLUORESCEIN-CONJUGATED GOAT IGG FRACTION TO MOUSE IGG (WHOLE MOLECULE) (MP Biomedicals, Inc.) 500-fold diluted with 5% FBS-containing PBS was then added thereto, and the cells were suspended and left to stand at 4° C. for 1 hour. After washing twice with 5% FBS-containing PBS, detection was carried out by using a flow cytometer (FC500; Beckman Coulter, Inc.). Data analysis was carried out by using FlowJo (Tree Star, Inc.). To confirm each transfection, the cells were permeabilized with 0.25% Tween 20-containing PBS, and then a mouse anti-FLAG antibody (Sigma-Aldrich Co. LLC) was used. […] In each graph in FIG. 11, the ordinate represents FITC fluorescence intensity indicating the amount of the binding antibody and the abscissa represents antibody concentrations.
(§2) The binding activity of the humanized anti-CLDN6 antibody produced in Example 10 to human CLDN6 and its family molecules, CLDN3, CLDN4, and CLDN9, was evaluated by using a flow cytometry method.
A general note: A flow cytometer gives signals particle by particle.

The target in a further experiment is T2, human CLDN4 (human, UniProt O14493 1-209).
T2 construct: whole, on cells
T2 sequence (looked up): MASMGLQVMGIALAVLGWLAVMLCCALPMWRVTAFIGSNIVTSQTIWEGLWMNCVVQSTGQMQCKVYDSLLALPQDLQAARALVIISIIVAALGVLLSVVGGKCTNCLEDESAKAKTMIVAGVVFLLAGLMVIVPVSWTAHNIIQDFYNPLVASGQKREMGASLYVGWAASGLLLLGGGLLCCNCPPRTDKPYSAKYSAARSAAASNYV
Described as above. The protocol:
as §1, §2

In the next experiment the target is T3, human CLDN6 (human, UniProt P56747 1-220).
T3 construct: Four-transmembrane protein; It was expressed on 293T cells from human CLDN6/pCMV-Entry (OriGene) and on CHO-K1 cells by cDNA transfection; it was endogenous in the NTERA-2 lysate used for immunoprecipitation; also called claudin-6; human claudin-6
T3 sequence: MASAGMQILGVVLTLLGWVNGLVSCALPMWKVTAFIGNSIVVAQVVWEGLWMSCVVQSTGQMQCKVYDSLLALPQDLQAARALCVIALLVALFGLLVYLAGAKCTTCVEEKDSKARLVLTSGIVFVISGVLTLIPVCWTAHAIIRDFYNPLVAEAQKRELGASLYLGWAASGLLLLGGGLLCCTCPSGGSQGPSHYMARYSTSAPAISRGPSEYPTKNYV
In words: FACS on CHO-K1 cells transfected with human claudin-6 cDNA.

Another experiment concerns the target T4, human CLDN9 (human, UniProt O95484 1-217).
T4 construct: Expressed on 293T cells from human CLDN9/pCMV6-Entry (OriGene); Transfection was confirmed with an anti-FLAG antibody
T4 sequence: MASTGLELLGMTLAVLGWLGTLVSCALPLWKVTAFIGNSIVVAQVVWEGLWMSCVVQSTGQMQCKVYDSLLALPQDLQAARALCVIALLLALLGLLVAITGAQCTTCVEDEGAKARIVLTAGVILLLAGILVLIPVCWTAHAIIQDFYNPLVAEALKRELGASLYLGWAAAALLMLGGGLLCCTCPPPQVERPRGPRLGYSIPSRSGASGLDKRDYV
In words: flow cytometry on transiently transfected 293T cells, 1.1-30 µg/mL. The protocol: Binding activity of the mouse anti-CLDN6 antibodies produced in Example 6 to human CLDN6 and its family molecules, CLDN3, CLDN4, and CLDN9, was evaluated by using a flow cytometry method. Human CLDN3/pCMV6-Entry, human CLDN4/pCMV6-Entry, human CLDN6/pCMV-Entry, human CLDN9/pCMV6-Entry, or pCMV6-Entry purchased from OriGene Technologies, Inc. was transiently transferred into 293T cells (Thermo Fisher Scientific, HCL4517) by using Lipofectamine 2000 (Thermo Fisher Scientific), and the cells were cultured under conditions of 37° C. and 5% CO₂ overnight, and then a cell suspension was prepared. The transfected 293T cell suspension was centrifuged to remove the supernatant, and a mouse anti-CLDN6 antibody (clone number: B1 or C7) or a mouse IgG1 control antibody (R&D Systems, Inc.) was then added and suspended to a final concentration of 30 μg/mL, 10 μg/mL, 3.3 μg/mL, or 1.1 μg/mL, and the resultant was left to stand at 4° C. for 1 hour. […] In each graph in FIG. 11, the ordinate represents FITC fluorescence intensity indicating the amount of the binding antibody and the abscissa represents antibody concentrations.

B1: mouse anti-CLDN6 antibody C7 (antibody, V domains shown)
VH: EVQLQQSGPELVKPGASVKISCKTSGYTFTEYTMHWVQQSHGKSLEWIGGVNPNSGDTSYNQKFKGKATLTVDKSSSTAYMELRSLTSEDSAVYYCARPGGYDVGYYAMDYWGQGTSVTVSS
VL: DIQMTQTASSLSASLGDRVTISCRASQDINNYLNWYQQKPDGTVKLLIYSTSRLHSGVPSRFSGSGSGTHYSLTITHLEQEDIATYFCQQGYPLPWTFGGGTKLEIK
notes: Mouse monoclonal antibody purified from hybridoma 218C7 culture supernatant; also called C7 antibody; 218C7
Turning to B1, the binding result was “no binding (tested: 30 µg/mL (highest concentration tested))” with human CLDN3, “no binding (tested: 30 µg/mL (highest concentration tested))” with human CLDN4, “binds” in the experiment with human CLDN6 and “binds” with human CLDN9.
